T1: TNFR1 (Homo sapiens, UniProt P19438)
T1 chain: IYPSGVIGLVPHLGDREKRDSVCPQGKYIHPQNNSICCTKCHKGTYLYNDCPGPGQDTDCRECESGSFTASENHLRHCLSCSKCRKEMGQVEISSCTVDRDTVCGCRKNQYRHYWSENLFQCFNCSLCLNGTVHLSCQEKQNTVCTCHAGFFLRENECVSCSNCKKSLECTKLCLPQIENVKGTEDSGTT


Molecular target: T1, TNFR1
Assay: yeast display SC50

Row | Binder | apparent Kd (screen)
1 | K88Y (designed binder) SMEEEVEKAAKEYEKKKKEAIEKHLEKLKAKDKEAAERFLKELEEAAKEYAKDEAKTMSEEEAKRRAKKYKEKVLLSELSEEEQKEIYEAEEKLVRTILKYVEEAAK | 0.49 nM
2 | S77R (designed binder) SMEEEVEKAAKEYEKKKKEAIEKHLEKLKAKDKEAAERFLKELEEAAKEYAKDEAKTMSEEEAKRRAKKYKEKVLLRELSEEEQKEIKEAEEKLVRTILKYVEEAAK | 1.86 nM
3 | T97Y (designed binder) SMEEEVEKAAKEYEKKKKEAIEKHLEKLKAKDKEAAERFLKELEEAAKEYAKDEAKTMSEEEAKRRAKKYKEKVLLSELSEEEQKEIKEAEEKLVRYILKYVEEAAK | 0.539 nM
4 | R96P (designed binder) SMEEEVEKAAKEYEKKKKEAIEKHLEKLKAKDKEAAERFLKELEEAAKEYAKDEAKTMSEEEAKRRAKKYKEKVLLSELSEEEQKEIKEAEEKLVPTILKYVEEAAK | 1.27 nM
5 | A47E (designed binder) SMEEEVEKAAKEYEKKKKEAIEKHLEKLKAKDKEAAERFLKELEEAEKEYAKDEAKTMSEEEAKRRAKKYKEKVLLSELSEEEQKEIKEAEEKLVRTILKYVEEAAK | 0.0802 nM
6 | K18N (designed binder) SMEEEVEKAAKEYEKKKNEAIEKHLEKLKAKDKEAAERFLKELEEAAKEYAKDEAKTMSEEEAKRRAKKYKEKVLLSELSEEEQKEIKEAEEKLVRTILKYVEEAAK | 0.539 nM
7 | E78L (designed binder) SMEEEVEKAAKEYEKKKKEAIEKHLEKLKAKDKEAAERFLKELEEAAKEYAKDEAKTMSEEEAKRRAKKYKEKVLLSLLSEEEQKEIKEAEEKLVRTILKYVEEAAK | 0.79 nM
8 | L28F (designed binder) SMEEEVEKAAKEYEKKKKEAIEKHLEKFKAKDKEAAERFLKELEEAAKEYAKDEAKTMSEEEAKRRAKKYKEKVLLSELSEEEQKEIKEAEEKLVRTILKYVEEAAK | 0.446 nM
9 | A90I (designed binder) SMEEEVEKAAKEYEKKKKEAIEKHLEKLKAKDKEAAERFLKELEEAAKEYAKDEAKTMSEEEAKRRAKKYKEKVLLSELSEEEQKEIKEIEEKLVRTILKYVEEAAK | 1.4 nM
10 | Y13N (designed binder) SMEEEVEKAAKENEKKKKEAIEKHLEKLKAKDKEAAERFLKELEEAAKEYAKDEAKTMSEEEAKRRAKKYKEKVLLSELSEEEQKEIKEAEEKLVRTILKYVEEAAK | 0.446 nM
11 | K31I (designed binder) SMEEEVEKAAKEYEKKKKEAIEKHLEKLKAIDKEAAERFLKELEEAAKEYAKDEAKTMSEEEAKRRAKKYKEKVLLSELSEEEQKEIKEAEEKLVRTILKYVEEAAK | 0.869 nM
12 | E78S (designed binder) SMEEEVEKAAKEYEKKKKEAIEKHLEKLKAKDKEAAERFLKELEEAAKEYAKDEAKTMSEEEAKRRAKKYKEKVLLSSLSEEEQKEIKEAEEKLVRTILKYVEEAAK | 1.54 nM
13 | Y70T (designed binder) SMEEEVEKAAKEYEKKKKEAIEKHLEKLKAKDKEAAERFLKELEEAAKEYAKDEAKTMSEEEAKRRAKKTKEKVLLSELSEEEQKEIKEAEEKLVRTILKYVEEAAK | 7.07 nM
14 | A10E (designed binder) SMEEEVEKAEKEYEKKKKEAIEKHLEKLKAKDKEAAERFLKELEEAAKEYAKDEAKTMSEEEAKRRAKKYKEKVLLSELSEEEQKEIKEAEEKLVRTILKYVEEAAK | 1.27 nM
15 | F39N (designed binder) SMEEEVEKAAKEYEKKKKEAIEKHLEKLKAKDKEAAERNLKELEEAAKEYAKDEAKTMSEEEAKRRAKKYKEKVLLSELSEEEQKEIKEAEEKLVRTILKYVEEAAK | 3.3 nM
16 | R65L (designed binder) SMEEEVEKAAKEYEKKKKEAIEKHLEKLKAKDKEAAERFLKELEEAAKEYAKDEAKTMSEEEAKLRAKKYKEKVLLSELSEEEQKEIKEAEEKLVRTILKYVEEAAK | 1.05 nM
17 | K27D (designed binder) SMEEEVEKAAKEYEKKKKEAIEKHLEDLKAKDKEAAERFLKELEEAAKEYAKDEAKTMSEEEAKRRAKKYKEKVLLSELSEEEQKEIKEAEEKLVRTILKYVEEAAK | 0.956 nM
18 | L99N (designed binder) SMEEEVEKAAKEYEKKKKEAIEKHLEKLKAKDKEAAERFLKELEEAAKEYAKDEAKTMSEEEAKRRAKKYKEKVLLSELSEEEQKEIKEAEEKLVRTINKYVEEAAK | 6.43 nM

Row | Binder | apparent Kd (screen)
19 | Q84E (designed binder) SMEEEVEKAAKEYEKKKKEAIEKHLEKLKAKDKEAAERFLKELEEAAKEYAKDEAKTMSEEEAKRRAKKYKEKVLLSELSEEEEKEIKEAEEKLVRTILKYVEEAAK | 4.39 nM
20 | A36T (designed binder) SMEEEVEKAAKEYEKKKKEAIEKHLEKLKAKDKEATERFLKELEEAAKEYAKDEAKTMSEEEAKRRAKKYKEKVLLSELSEEEQKEIKEAEEKLVRTILKYVEEAAK | 1.69 nM
21 | E89G (designed binder) SMEEEVEKAAKEYEKKKKEAIEKHLEKLKAKDKEAAERFLKELEEAAKEYAKDEAKTMSEEEAKRRAKKYKEKVLLSELSEEEQKEIKGAEEKLVRTILKYVEEAAK | 1.4 nM
22 | E104M (designed binder) SMEEEVEKAAKEYEKKKKEAIEKHLEKLKAKDKEAAERFLKELEEAAKEYAKDEAKTMSEEEAKRRAKKYKEKVLLSELSEEEQKEIKEAEEKLVRTILKYVEMAAK | 0.869 nM
23 | K18R (designed binder) SMEEEVEKAAKEYEKKKREAIEKHLEKLKAKDKEAAERFLKELEEAAKEYAKDEAKTMSEEEAKRRAKKYKEKVLLSELSEEEQKEIKEAEEKLVRTILKYVEEAAK | 0.79 nM
24 | S1S (designed binder) SMEEEVEKAAKEYEKKKKEAIEKHLEKLKAKDKEAAERFLKELEEAAKEYAKDEAKTMSEEEAKRRAKKYKEKVLLSELSEEEQKEIKEAEEKLVRTILKYVEEAAK | 0.539 nM
25 | K88R (designed binder) SMEEEVEKAAKEYEKKKKEAIEKHLEKLKAKDKEAAERFLKELEEAAKEYAKDEAKTMSEEEAKRRAKKYKEKVLLSELSEEEQKEIREAEEKLVRTILKYVEEAAK | 0.49 nM
26 | E34V (designed binder) SMEEEVEKAAKEYEKKKKEAIEKHLEKLKAKDKVAAERFLKELEEAAKEYAKDEAKTMSEEEAKRRAKKYKEKVLLSELSEEEQKEIKEAEEKLVRTILKYVEEAAK | 0.446 nM
27 | E3S (designed binder) SMSEEVEKAAKEYEKKKKEAIEKHLEKLKAKDKEAAERFLKELEEAAKEYAKDEAKTMSEEEAKRRAKKYKEKVLLSELSEEEQKEIKEAEEKLVRTILKYVEEAAK | 2.73 nM
28 | E34M (designed binder) SMEEEVEKAAKEYEKKKKEAIEKHLEKLKAKDKMAAERFLKELEEAAKEYAKDEAKTMSEEEAKRRAKKYKEKVLLSELSEEEQKEIKEAEEKLVRTILKYVEEAAK | 0.446 nM
29 | K69Q (designed binder) SMEEEVEKAAKEYEKKKKEAIEKHLEKLKAKDKEAAERFLKELEEAAKEYAKDEAKTMSEEEAKRRAKQYKEKVLLSELSEEEQKEIKEAEEKLVRTILKYVEEAAK | 0.446 nM
30 | E3R (designed binder) SMREEVEKAAKEYEKKKKEAIEKHLEKLKAKDKEAAERFLKELEEAAKEYAKDEAKTMSEEEAKRRAKKYKEKVLLSELSEEEQKEIKEAEEKLVRTILKYVEEAAK | 1.4 nM
31 | E19I (designed binder) SMEEEVEKAAKEYEKKKKIAIEKHLEKLKAKDKEAAERFLKELEEAAKEYAKDEAKTMSEEEAKRRAKKYKEKVLLSELSEEEQKEIKEAEEKLVRTILKYVEEAAK | 0.869 nM
32 | R38I (designed binder) SMEEEVEKAAKEYEKKKKEAIEKHLEKLKAKDKEAAEIFLKELEEAAKEYAKDEAKTMSEEEAKRRAKKYKEKVLLSELSEEEQKEIKEAEEKLVRTILKYVEEAAK | 1.4 nM
33 | E37G (designed binder) SMEEEVEKAAKEYEKKKKEAIEKHLEKLKAKDKEAAGRFLKELEEAAKEYAKDEAKTMSEEEAKRRAKKYKEKVLLSELSEEEQKEIKEAEEKLVRTILKYVEEAAK | 0.446 nM
34 | Q84F (designed binder) SMEEEVEKAAKEYEKKKKEAIEKHLEKLKAKDKEAAERFLKELEEAAKEYAKDEAKTMSEEEAKRRAKKYKEKVLLSELSEEEFKEIKEAEEKLVRTILKYVEEAAK | 5.84 nM
35 | L76S (designed binder) SMEEEVEKAAKEYEKKKKEAIEKHLEKLKAKDKEAAERFLKELEEAAKEYAKDEAKTMSEEEAKRRAKKYKEKVLSSELSEEEQKEIKEAEEKLVRTILKYVEEAAK | 4.83 nM
